Source: FireProtDB (doi:10.1111/j.1432-1033.1994.tb18652.x)

B1: Guanyl-specific ribonuclease T1, P00651 (parent)
chain: MMYSKLLTLTTLLLPTALALPSLVERACDYTCGSNCYSSSDVSTAQAAGYQLHEDGETVGSNSYPHKYNNYEGFDFSVSSPYYEWPILSSGDVYSGGSPGADRVVFNENNQLAGVITHTGASGNNFVECT

Variants of: B1
Conditions: Aspergillus oryzae (strain ATCC 42149 / RIB 40), pH 6, Thermal, DSC, sodium acetate calcium acetate 20 mM 2 mM, Mops 50 mM, reversible: yes, structure 1RN1, whole UniProt chain shown; for ddG of mutation (higher = less stable) / heat capacity change of unfolding / unfolding free energy: 25 °C

Variant	ddG of mutation (higher = less stable) [kcal/mol]	heat capacity change of unfolding [kcal/mol/K]	unfolding free energy [kcal/mol]	Tm [°C]	change of melting temperature, mutant - wild type (higher = more stable) [°C]	unfolding enthalpy (calorimetric) [kcal/mol]
MMYSKLLTLTTLLLPTALALPSLVERACDYTCGSNCYSSSDVSTAQAAGWQLHEDGETVGSNSYPHKYNNYEGFDFSVSSPYYEWPILSSGDVYSGGSPGADRVVFNENNQLAGVITHTGASGNNFVECT [Y50W]	-1.24	0.98	9.03	58.8	1.6	106
MMYSKLLTLTTLLLPTALALPSLVERACDYTCGSNCYSSSDVSTAQAAGWQLHEDGETVGSNSYPHKYNNYEGFDFSVSSPYYEYPILSSGDVYSGGSPGADRVVFNENNQLAGVITHTGASGNNFVECT [Y50W W85Y]	-0.29	0.98	8.1	56.6	-0.6	101
MMYSKLLTLTTLLLPTALALPSLVERACDYTCGSNCYSSSDVSTAQAAGYQLHEDGETVGSNSYPTKYNNYEGFDFSVSSPYYEWPILSSGDVYSGGSPGADRVVFNENNQLAGVITHTGASGNNFVECT [H66T]	0.26	0.98	–	56.7	-0.5	100
MMYSKLLTLTTLLLPTALALPSLVERACDYTCGSNCYSSSDVSTAQAAGYQLHEDGETVGSNSYPTKYNNYEGFDFSVSSPYYEYPILSSGDVYSGGSPGADRVVFNENNQLAGVITHTGASGNNFVECT [H66T W85Y]	0.93	0.98	6.88	53.9	-3.3	92.5
MMYSKLLTLTTLLLPTALALPSLVERACDYTCGSNCYSSSDVSTAQAAGYQLHEDGETVGSNSYPHKWNNYEGFDFSVSSPYYEWPILSSGDVYSGGSPGADRVVFNENNQLAGVITHTGASGNNFVECT [Y68W]	0.14	0.98	7.67	56.6	-0.6	96.1
MMYSKLLTLTTLLLPTALALPSLVERACDYTCGSNCYSSSDVSTAQAAGYQLHEDGETVGSNSYPHKWNNYEGFDFSVSSPYYEYPILSSGDVYSGGSPGADRVVFNENNQLAGVITHTGASGNNFVECT [Y68W W85Y]	1.03	0.98	6.76	53.7	-3.5	91.8
MMYSKLLTLTTLLLPTALALPSLVERACDYTCGSNCYSSSDVSTAQAAGYQLHEDGETVGSNSYPHKYNNWEGFDFSVSSPYYEYPILSSGDVYSGGSPGADRVVFNENNQLAGVITHTGASGNNFVECT [Y71W W85Y]	0.91	0.98	6.91	52.8	-4.4	95.1
MMYSKLLTLTTLLLPTALALPSLVERACDYTCGSNCYSSSDVSTAQAAGYQLHEDGETVGSNSYPHKYNNYEGFDFSVSSPYYEYPILSSGDVYSGGSPGADRVVFNENNQLAGVITHTGASGNNFVECT [W85Y]	0.93	0.98	6.88	54.3	-2.9	91.8
MMYSKLLTLTTLLLPTALALPSLVERACDYTCGSNCYSSSDVSTAQAAGYQLHEDGETVGSNSYPHKYNNYEGFDFSVSSPYYEYPILSSGDVYSGGSPGADRVVFNENNQLAGVITATGASGNNFVECT [W85Y H118A]	1.53	0.98	6.26	53.2	-4	87
MMYSKLLTLTTLLLPTALALPSLVERACDYTCGSNCYSSSDVSTAQAAGYQLHEDGETVGSNSYPHKYNNYEGFDFSVSSPYYEWPILSSGDVYSGGSPGADRVVFNENNQLAGVITATGASGNNFVECT [H118A]	0.62	0.98	7.19	–	–	–
MMYSKLLTLTTLLLPTALALPSLVERACDYTCGSNCYSSSDVSTAQAAGYQLHEDGETVGSNSYPHKYNNWEGFDFSVSSPYYEWPILSSGDVYSGGSPGADRVVFNENNQLAGVITHTGASGNNFVECT [Y71W]	–	0.98	8.56	55.9	-1.3	107
